assay: soluble on expression in E. coli; label from the status in PepcDB or PDB records

Sequence	soluble on expression in E. coli
MRELGLEIPVEEVYNANSISLKDAVVHFGGGCTGEVISSEGLVLTNHHCGYGAIQQHSNVEHDYLTEGFWAMNRDAELPTPGLTVTFIDRILDVTSYVNDQLKKDEDPNGTNYLSPSYLSKVAERFAKDENIEVTPATKLELKAFYGGNKYYMFVKTVYSDIRMVGAPPSSIGKFGADTDNWMWPRHTGDFSLFRIYADKNGKPAAYSRDNVPLQVKKHLKISIAGVQEGDFTFVMGFPGRNWRYMISDEVEERMQTTNFMRQHVRGARQKVLMEQMLKDPAVRIHYASKYASSANYWKNAIGMNEGLVRLKVLDTKRKQQEELLARGREKGDDSYQKAFDEIRSIVAHRRDALYHQQALNEALVTALDFMRLPSTTEMVTALKSKNKEQIKTATENLKQAGEKYFASVPFPEVERMVAKTMLQTYASYIPEEQRINIFEIINSRFKGNIDSFVDACFEYSIFGNPKNFEKFIKKPSLYKIGHDWMVLFKYSITDGILKTAIAMKEANQNYDAAHKVWVKGMMDMRQEKGMPIYPDANSTLRLTYGQVLSYEPADGVVYDAHTTLKGVMEKEDPGNWEFVVPQKLKELYKARDYGRYGKDGEMPVCFIVNTDNTGGNSGSPVFNSKGQLVGTAFDRNYEGLTGDIAFRPSSQRAACVDIRYTLFIIDKYAGASHIIDELSIE	not soluble
MAHHHHHHMLILKNVEHTILLKIVKRSFSRNVNNNKFVIKPSSLRIRSDKNNFNDIINKYFPNRILKKRKQQDDYSKMNDKNEEKDKKYYLSSKIERRLKMEKVNDQSNISFYNVIPRDKNKNNYLLDSYNNINNDDSTNISDNTNISDNTNISDNTNISDNTNISDNINISDNINISDDINICDKLNICDNTNINLFGYDMTSHQVRVEEKENNLTRNNKKNVLEITKEEHDIQKYKNKLHKKIWILLKRKSNEKEFEHYYNMLEKYPLKDEVSYSILLHGKLLISKRKKDNAENYYDIIKECFKILNEMKVKKIHPTLVRFNEKLVLSYYELIKLNVHPSYKQWMKILRTVWFVSALVKARRQKFILRKMKKIKNKNSVSLDNFNGTFNIHNLESLYVENRDPLIANNVQQGI	soluble
MSADNLLLDFTSPGAIPPDPAEVVRRVVDETQTTMRALESLLENERIEDMTGWRLLAMFYLATDRLNDLAKIEKQYKSITGVSLSADLKQKYPQWFNGEAVSHPVVFEIPKKITAAALPDSIIIQRGQCSPGGILLDFSQVQEIDNDGLKKLAQLFSSLAQENTRPKLRQADRFITCLQNKAETGTGTRAIWDVLFAYERFRDDREAFEEKAIKFAVLYGISPPSWE	not soluble
MGSDKIHHHHHHMPIKVNMFSSASKVKGQGVGSAYEELIRLLKTHFPKQIDVSINKFTKADISHYHTIDPNFYLSTFSKKRGIKVGYVHFLPETIEGSLNIPQPFRSIFYKYIISFYKRMDHIVVVNPTFIDKLVAYGISRDIITYIPNFVRKNEFYRFTEANRDAVRERLEVNNRFTVLGIGQVQERKGVKDFIKLAENNPDKYFIWAGGFSFGRLTDGYADLKQVVDNPPRNLKFTGIVDRNALVEYYNAADLFLLPSYNELFPMSVLEAFSCGVPVMLRDLELYHSIIKGYYIPTQDYEDMNTQLKLVSEDKERLNKFKQLSDEASEEYSEDHLADIWLDFYSSLTK	not soluble
MMYQDVVRSRRSVRDFMPDVEIPKEELMAIIEEAMFAPNSTNLNSWRFLIVTEKEQKEALYEVSMQQPAVKGAAAVIILLGDLTAYTVANADEISAKAVAQGTMTEEIRQGINENVSWYYDVSEEQKREWLMLDQGLVAMQLMLSAKDRGYDTVAMSGFETEAVRKLFNIEDHLVNGLIIPIGKAQTPGFETVRRDVSEVVTWLD	not soluble
MRATEDHTIFDRGVGQRDQLQRLWTPYRMNYLAEAPVKRDPNSSASPAQPFTEIPQLSDEEGLVVARGKLVYAVLNLYPYNPGHLMVVPYRRVSELEDLTDLESAELMAFTQKAIRVIKNVSRPHGFNVGLNLGTSAGGSLAEHLHVHVVPRWGGDANFITIIGGSKLEHHHHHH	not soluble
GMDETPIFKIKKLTIAENDRSEYIRYAEKNMHDSIPAEEGTLLIGSGHDDAHGEDNYEIEVFRNKGAEDLHIAGSHADDFVETVNKIATKQKVIDLHPEVITTKAQRALNSYADNFVMRLIKVEVKDADAEKFSHAVKKEMTTSMASEPGMEIMMSGTNIDNPNEWYFIEVYANDEAYDIHVKTPHYKEYIEETDGMVKSRDVKTLVRDTLATQGAIVLD	soluble
MGHHHHHHSHNQYPAELMRRFELYFQGPSSNKPRVIREVRADSVGKLVTVRGIVTRVSEVKPKMVVATYTCDQCGAETYQPIQSPTFMPLIMCPSQECQTNRSGGRLYLQTRGSRFIKFQEMKMQEHSDQVPVGNIPRSITVLVEGENTRIAQPGDHVSVTGIFLPILRTGFRQVVQGLLSETYLEAHRIVKMNKSEDDESGAGELTREELRQIAEEDFYEKLAASIAP	not soluble
MVSPLKTRCCSPSSQQQASEAREIEQPSTVWELDFYSRPVYGKDNKRIWELIVVDESFLLCHVESVPNDMINSAELRKRVERLLEQVTVKPKVVKFSRMPMFNMISLALKDLGFEVKPSRRTYRLYHVLRDREANIYSKMPGYRSENTLSTSYLYSTERLPDALRGEKFAFCTADYSFLYELQSSDTIPYCDIFNTGDSILLEKELPGIIVYSERADSLASWTAGAEVSFIKFREEELELVLECGINSHYRLAKIAEDHRLVEEAKTFEQMKWHMKGFHFYAIQSLKETSGTSHIKGLWLLNDFMEQ	not soluble
MTPMKTYDLIVIGTGPGGYHAAIRAAQLGLKVLAVEAGEVGGVCLNVGCIPTKALLHAAETLHHLKVAEGFGLKAKPELDLKKLGGWRDQVVKKLTGGVGTLLKGNGVELLRGFARLVGPKEVEVGGERYGAKSLILATGSEPLELKGFPFGEDVWDSTRALKVEEGLPKRLLVIGGGAVGLELGQVYRRLGAEVTLIEYMPEILPQGDPETAALLRRALEKEGIRVRTKTKAVGYEKKKDGLHVRLEPAEGGEGEEVVVDKVLVAVGRKPRTEGLGLEKAGVKVDERGFIRVNARMETSVPGVYAIGDAARPPLLAHKAMREGLIAAENAAGKDSAFDYQVPSVVYTSPEWAGVGLTEEEAKRAGYKVKVGKFPLAASGRALTLGGAEGMVKVVGDEETDLLLGVFIVGPQAGELIAEAALALEMGATLTDLALTVHPHPTLSESLMEAAEAFHKQAIHILNR	soluble
NELDVPEQVDKLIQQATSIERLCQHYIGWCPFW	soluble
MGSDKIHHHHHHMRHTILFIIDGLPGGGAERVVITLAGEMAARGHQVTIASLQASLDYAIPAGVDYLLVEDRYRGPLRRQTEIRRRARQLDGALRRHFAGRRIDLAVSNLPKTDRIVAACPYLEQAWLCLHCAIQAGQLAERSGIRRWLKKRQLVRTYSGRKLITVCQALQRDVLDCGIRPARMEAIYNPFDLDWIRRRAAQPCPMDGEDFILHVGRFNHQKRHDRLLEAFKLSGYPGKLALLGQGGQAELSAIQVQAERLGVADRLVVAGFTDNPYAYMRAARALVLSSDYEGFGNVLVEALACGTPVASTNCPEGPAEILTGPLSIGLSELNGQALADAIKRVLASRPLAGPEQLAAFAQDAVVERYLALVNQ	not soluble
MRVISGSKKGRSLKAVAGTSTRPTTDKVKESIFNMIGPYFDGGRGLDLFAGSGGLGIEALSRGFEHCIFVDRDFKAIQTVKSNLKTLELTKHAQVYRNDAERALHAAAKRETGFRGIFLDPPYKEQKLKALLTLIDEYQMLEEDGFIVAEHDREVELPETVEILLEHHHHHH	soluble
MIGGLFIYNHKGEVLISRVYRDDIGRNAVDAFRVNVIHARQQVRSPVTNIARTSFFHVKRSNIWLAAVTKQNVNAAMVFEFLYKMCDVMAAYFGKISEENIKNNFVLIYELLDEILDFGYPQNSETGALKTFITQQGIKSQHQTKEEQSQITSQVTGQIGWRREGIKYRRNELFLDVLESVNLLMSPQGQVLSAHVSGRVVMKSYLSGMPECKFGMNDKIVIEKQGKGTADETSKSGKQSIAIDDCTFHQCVRLSKFDSERSISFIPPDGEFELMRYRTTKDIILPFRVIPLVREVGRTKLEVKVVIKSNFKPSLLAQKIEVRIPTPLNTSGVQVICMKGKAKYKASENAIVWKIKRMAGMKESQISAEIELLPTNDKKKWARPPISMNFEVPFAPSGLKVRYLKVFEPKLNYSDHDVIKWVRYIGRSGIYETRC	soluble
MTSSSTPRHRGIFPVVPTTFADTGDLDLASQKRAVDFMIDAGSDGLCILANFSEQFAITDDERDVLTRTILEHVAGRVPVIVTTSHYSTQVCAARSLRAQQLGAAMVMAMPPYHGATFRVPEAQIFEFYARVSDAIAIPIMVQDAPASGTALSAPFLARMAREIEQVAYFKIETPGAANKLRELIRLGGDAIEGPWDGEEAITLLADLHAGATGAMTGGGFPDGIRPILEAWREGRHDDAYARYQAWLPLINHENRQSGILTAKALMREGGVIASERPRHPMPELHPDTRAELLAIARRLDPLVLRWAH	soluble
MSLIYCETERLILRDWHEDDLLPFQKMNANYDVRKYFPSLLSYRRSELDMRTMDAVIKDYGIGLFAVEDKESHQWIGFIGLNYIPETSDYPFKELPLYEIGWRLLPEFWGKGLATEGAKATLKLAEEHQIYDVYSFTAEANKASQRVMEKIGMTVYDHFELPNLSKYHLLKRQVRYYINLRKEGHHHHHH	soluble
AMMIGIIGAMEEEVTILKNKLTQLSEISVAHVKFYTGILKDREVVITQSGIGKVNAAISTTLLINKFKPDVIINTGSAGALDESLNVGDVLISDDVKYHDADATAFGYEYGQIPQMPVAFQSSKPLIEKVSQVVQQQQLTAKVGLIVSGDSFIGSVEQRQKIKKAFPNAMAVEMEATAIAQTCYQFNVPFVVVRAVSDLANGEAEMSFEAFLEKAAVSSSQTVEALVSQL	soluble
MRNEEKHALRRELRRARAQMGHQGRLAAGQTINRLLKRYIKRGRKIGVYWPMGKELRLDGFVRAAQKRGAKLYLPYIEPRSRRMWFTPYPESGMERERIRGRAKLNVPQFAGRKIRVHGLSVLLVPLVGIDREGYRLGQAGGYYDATLAAMKYRLQAKTVGVGFACQFVDRLPREPHDLLLDGFVSEAGILCFLEHHHHHH	not soluble
KMPVTAGLTVEKKINKHLAVETGLLYSNLRAEQNLHYLGIPVKLNVTLAETPKFDLYASVGGVADKCIAGAPDNSFKNEPVQLALTAGVGMNYKINDKLALFAEPG	not soluble
TTSRQIGSDDNTSLGTNISIDGMPLSNDAMRTQLYGITGVDRSDLYVADRTVTRRTGMNAGIDLRTISTDHIETIEIERGISSVGEGNLSSGAIRIRTKQGSAPLQMRVKADPLSKLAYVGKGFKVSKRGASIHTGIDFLHNKPDVREVLDSYKRSTLHARYSDQLNYGDMIVDLGIGLMQTFSIQDSKSDQLVNEYEETYNSKYLRSSLSFDAKVRFSGSWLNSIDWLLSADYTSDLLKRKKYYISTSGPKSMPVATESGEHEGVFLPSAYYAYYEIDNQPLYFFSRFKANTDINFTERHHHHLLYGLEARSSKNIGRGVVADPTRPPYPGNNSYIRPRPNYNIPASVYAAFFVEDRASVEWGANRLGIQAGLRATHLFNLPSSYALSRKMLIEPRIKANWQYRAEHLSINLRAGYGMENKLPTLDHLYPDKIYRDFMVLNAYMQNPELDHLITYTYIHNPENPAIRENRNVKKEIGIDMTYKRFDFSLTLFHEESRRGFEYFDSYLPIAFDRYTKLIAPLPPGHKPQKEDYIQEHHKDFFVIPTVQNSAKVVKRGIEFRLRTPYLKAINTQVEVNGAYYHTLYASGIPIMFRPIVSEYEQALYPYVGYYEGSLHKHYQRFNTNVWVNTHFPRYKLIFTSFFQIIWHDASYRGHEESEFPYAYMDLDGVVHPTSKAAILEAAATNDILKYLSRERTELYYRATYKPISLRINFKATKEFSDRMRLAFFVDNIIDINPKYKQANNTTERDWSIPYFGIETTFTL	not soluble
